# B1: Wnt9B: Recombinant Wnt peptide purchased from R&D systems (protein, UniProt O14905 23-357, looked up)
# Protein Wnt-9b: SYFGLTGREVLTPFPGLGTAAAPAQGGAHLKQCDLLKLSRRQKQLCRREPGLAETLRDAAHLGLLECQFQFRHERWNCSLEGRMGLLKRGFKETAFLYAVSSAALTHTLARACSAGRMERCTCDDSPGLESRQAWQWGVCGDNLKYSTKFLSNFLGSKRGNKDLRARADAHNTHVGIKAVKSGLRTTCKCHGVSGSCAVRTCWKQLSPFRETGQVLKLRYDSAVKVSSATNEALGRLELWAPARQGSLTKGLAPRSGDLVYMEDSPSFCRPSKYSPGTAGRVCSREASCSSLCCGRGYDTQSRLVAFSCHCQVQWCCYVECQQCVQEELVYTCKH
# B2: Wnt5A: Recombinant Wnt peptide purchased from R&D systems (protein, UniProt P41221 62-380, looked up)
# Protein Wnt-5a: IIGAQPLCSQLAGLSQGQKKLCHLYQDHMQYIGEGAKTGIKECQYQFRHRRWNCSTVDNTSVFGRVMQIGSRETAFTYAVSAAGVVNAMSRACREGELSTCGCSRAARPKDLPRDWLWGGCGDNIDYGYRFAKEFVDARERERIHAKGSYESARILMNLHNNEAGRRTVYNLADVACKCHGVSGSCSLKTCWLQLADFRKVGDALKEKYDSAAAMRLNSRGKLVQVNSRFNSPTTQDLVYIDPSPDYCVRNESTGSLGTQGRLCNKTSEGMDGCELMCCGRGYDQFKTVQTERCHCKFHWCCYVKCKKCTEIVDQFVCK
# What was measured:
# Assay type in all cases: cell-based, human
# [1] = test system: MCF7 breast cancer cell line; assay: Live [Ca2+]i imaging after addition of Wnt ligand, MCF7; conditions: MCF7 cells
# Procedure: (§1) The imaging protocol was developed in the inventor's laboratory and has been described in detail, elsewhere (Wang at al., (2010) PLoS ONE 5, e10456). Briefly, 100000-200000 PC3, MCF7, 253J or Cos 7 cells were plated on 35 mm FluoroDish (WPI) and grown for 48 h; calcium indicators Fluo-4 (Invitrogen) and FuraRed (Invitrogen) at 1 ng/ml were added to FluoroDish containing only 1 ml of culture medium and incubated for 15-20 min at 37° C. The culture medium was removed and washed (×2) and replaced with 1 ml PBS. Live cell calcium Imaging was performed on an Olympus FluoView FV 1000 confocal microscope (Olympus […]) equipped with a 20× dry objective (numerical aperture=0.75). Calcium indicators were excited with an argon laser line (488 nm) and emissions recorded in the green channel (500-560 nm) for Fluo-4 and red channel (600-700 nm) for FuraRed after addition of vehicle control (PBS) or Wnt X (30-600 ng/ml). Images were acquired every 1.1 or 2.2 seconds for up to 600-800s; image and data acquisition was performed using FluoView 1000 software (Olympus, UK). Fluorescent intensity was measured and data exported as a tab delimited file for further analysis using a spreadsheet. All imaging experiments were performed in duplicate; intracellular calcium at 100 ng/ml was measured in at least 3-12 different passages (passage numbers 25 to 37) of cell line for each Wnt ligand. Wnt 11 was tested in at least 5 different passages at 3 different concentrations. […] The measurements were exported as a tab delimited file into a spreadsheet for further analysis and Fluo4/Fura Red ratios were calculated. […] The time constants (rise, dwell and fall times) were calculated by first fitting the Fluo4/FuraRed ratio to a single Gaussian function (Origin Lab Corp., MA); a lower (10%) and upper (90%) amplitude thresholding method was then used to calculate the time constants (s). Statistical significance was calculated using Mann Whitney U test.
# [2] = test system: 253J urinary tract (bladder) cancer cell line; assay: Live [Ca2+]i imaging after addition of Wnt ligand, 253J; conditions: 253J cells
# Procedure: as §1
# [3] = test system: β-catenin translocation to the nucleus; assay: β-catenin immunocytochemistry, 253J; conditions: 253J bladder cancer cell line
# Procedure: Immunostaining was performed in two different laboratories, independently with the experimenter blind to the identity of the treatment. Either cells used in FluoroDish, post [Ca^2+]i experiments using dyes (see above) or grown in 8 well chamber glass slides (Lab Tek II, Nunc) were used. For Wnt ligand treatment, the culture medium replaced with PBS (without calcium) at 37° C. The experiments were replicated for Wnt ligand or vehicle control as described for [Ca^2+]i measurements. Briefly, Wnt ligands were added and chamber slides incubated at 37° C. for up to 20 min. Chamber wells were washed 3× with 0.5 ml PBS and cells were fixed with 0.5 ml 4% formalin for 30 min at 4° C. Cells were washed 3× with ice cold PBS and stored in 0.5 ml PBS at 4° C. for immunostaining. In some experiments PC3 cells were treated with thaspsigargin as described above.
# For immunostaining cells were washed twice for 5 minutes in TBST (20 mM Tris pH 7.4, 0.9% NaCl, 0.1% Tween 20, Sigma). Cells were then incubated in 20% normal goat serum (NGS)/TBST for 30 min at room temperature, the chambers were drained and cells were incubated with mouse anti-β-catenin (ab22656, Abcam, UK) at 1:500 dilution in NGS/TBST overnight at 4° C. […]
# Fluorescence immunocytochemical staining for β-catenin expression in cell lines was imaged using Olympus Fluoview 1000 Confocal Microscope (Olympus KeyMed) mounted on an Olympus IX81 inverted microscope using a 20×0.7 NA or 40×1.0 NA dry objective with a zoom of ×3.4′,6-diamidino-2-phenylindole (DAPI, nuclear counterstain) was excited at 405 nm with an emission of 415-500 nm; Cy3 (β-catenin label) signal was excited at 561 nm with an emission spectrum between 570-670 nm. […]
# Nuclear co-localization of β-catenin was calculated by importing FV files for untreated, control or treated cells, into colocalization plugin of Fiji software (http://fiji.sc/Fiji) for Cy3 (β-catenin) and DAPI (nuclear) signals. […] Statistical significance between untreated and treated cells was calculated using Mann Whitney U test.
Molecule,[Ca2+]i release in response to Wnt ligand [1],[Ca2+]i release in response to Wnt ligand [2],β-catenin translocation into the nucleus after Wnt treatment [3]
Wnt10B: Recombinant Wnt peptide purchased from R&D systems,activated [Ca^2+]i release,activated [Ca^2+]i release,β-catenin translocation into the nucleus
B1,activated [Ca^2+]i release,activated [Ca^2+]i release,β-catenin translocation into the nucleus
B2,activated [Ca^2+]i release,activated [Ca^2+]i release,β-catenin translocation into the nucleus
